Consider 18 sequences from the supplement of paper PMC12764529.

± gives the half width of the 95% confidence interval.

Data set [1] in a line: folding stability dG unfold from trypsin proteolysis; higher = more stable. In short, it runs like this: (§1)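 Digests were run with trypsin and chymotrypsin at 11 concentrations in threefold dilutions, plus a no-protease condition, on designed mini-proteins in a PA-tagged cDNA display construct. The mini-proteins were under 80 residues, had no cysteine, and were kept only when AlphaFold2 dimer inter-PAE was above 15. After sequencing, Bayesian fitting of the counts gave K50, from which unfolding free energy was derived against a sequence-predicted unfolded-state K50 and a shared folded-state K50, per protease or combined.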

Data set [2] can be described thus: folding stability dG unfold from chymotrypsin proteolysis; higher = more stable. The gist of the method: as §1
The nature of data set [3]: folding stability dG unfold (combined trypsin and chymotrypsin); higher = more stable. The gist of the method: as §1

On to “SAGGSAGGSATPPDSSVSVKVEITVGGEKKLVTATLTTLPNGTTSLTLNFDIPPDKYELSLVSAGGSAGGSA [r18_428_JUSTAS]”, for which the “folding stability dG unfold” value was 2.52 ± 0.11 kcal/mol in data set [1], 2.74 ± 0.09 kcal/mol in data set [2] and 2.51 ± 0.15 kcal/mol in data set [3].
The matching figures for “SAGGSAGGSATQTIPFENPDGHPWTGTVEKRPDGMVKIDLTFPGGEKKEFYIPPGEEIRLPFSAGGSAGGSA [r18_115_TrROS]”: 0.775 ± 0.057 kcal/mol, 0.0335 ± 0.24 kcal/mol and 0.42 ± 0.19 kcal/mol.
On to “SAGGSAGGSATTIEITLPDGTKAVTLSTTSENSILLLVTAPDSPSLGFIDKNNPNNIILLKSAGGSAGGSAG [r3_450_JUSTAS]”, for which the “folding stability dG unfold” value in data set [1] came out at 0.467 ± 0.054 kcal/mol; in data set [2], 0.623 ± 0.1 kcal/mol; in data set [3], 0.627 ± 0.093 kcal/mol.
The like results for “SAGGSAGGSATVKIVETKVGADGAVYTTALVTLPNGGVLIVKTKTYPSGESETSVTLTSGKEFSAGGSAGGS [r12_995_TrMRF]” were, in that order, 2.21 ± 0.081 kcal/mol, 1.74 ± 0.045 kcal/mol and 2 ± 0.071 kcal/mol.
The matching figures for “SAGGSAGGSAVITTETGGDSTVTTTTSLTGEGGTLTTTTTTTTTDGTTTTTTTTTDTGLSPTSSAGGSAGGS [r12_769_JUSTAS]”: 2.41 ± 0.062 kcal/mol, 1.99 ± 0.024 kcal/mol and 2.16 ± 0.034 kcal/mol.
The matching figures for “SAGGSAGGSAVVTLSPDGRRITITSRTVTYFKVTNTDDIAIETSVETVVTPLPSLGSPEVLASAGGSAGGSA [r18_6_JUSTAS]”: 3.04 ± 0.13 kcal/mol, 2.1 ± 0.098 kcal/mol and 2.56 ± 0.28 kcal/mol.
With “SAGGSAGGSAWIPAKEIAKEIKAEYPPGKEREFRFPEEGWWIRIQVNKEGKPKVKVVPPEDISAGGSAGGSA [r18_61_TrROS]”, the entries for the “folding stability dG unfold” value in data set [1], in data set [2] and in data set [3] were 0.103 ± 0.19 kcal/mol, 0.18 ± 0.17 kcal/mol and 0.109 ± 0.16 kcal/mol, respectively.
The like results for “SAGGSAGGSAWITINDVRDYLKKEGIDPKNMSAEEIASEFKDKWPNVNIEAQPNGSAWIKPSAGGSAGGSAG [r3_375_TrROS]” were, in that order, 0.785 ± 0.054 kcal/mol, 0.535 ± 0.36 kcal/mol and 0.814 ± 0.14 kcal/mol.
The like results for “SAGGSAGGSAWMYRIKIEIYSNGKKHKYEFWIPEDNIDEVADQLPPGYKIKITDIEPWEPNSAGGSAGGSAG [r3_195_TrROS]” were, in that order, 1.82 ± 0.022 kcal/mol, 2.73 ± 0.049 kcal/mol and 2.46 ± 0.14 kcal/mol.
The like results for “SAGGSAGGSAYIPAEEIAEEVAAVLPPDEVALFPLPEKPLVVLVVREEDGVPRVLVLPPELASAGGSAGGSA [r18_61_TrMRF]” were, in that order, 0.00934 ± 0.069 kcal/mol, 0.367 ± 0.093 kcal/mol and 0.261 ± 0.082 kcal/mol.
For “SAGGSAGGSAYTINIWVPPGMPKEEAADYIADWLHERHGIPDIKVSVEQDPDGMTKVTITVKSAGGSAGGSA [r18_1_TrROS]”, the “folding stability dG unfold” value is 2.32 ± 0.14 kcal/mol in data set [1], 2.77 ± 0.033 kcal/mol in data set [2] and 2.52 ± 0.085 kcal/mol in data set [3].
The like results for “SAGGSAGGSAYWRIKIFYPNNGREVTIHVPGSADDILDEAKPQFGYPPDNIKKIKIEPMDNSAGGSAGGSAG [r3_79_TrROS]” were, in that order, -0.409 ± 0.33 kcal/mol, 0.783 ± 0.35 kcal/mol and 0.432 ± 0.21 kcal/mol.
The like results for “SAGGSAGGSDETLTVTRGRTETVTVRRVERRPPAAAPPLKVTLSAVLDADGRLVSVSASVELLSAGGSAGGS [r12_727_TrROS_Hall]” were, in that order, 2.1 ± 0.05 kcal/mol, 1.88 ± 0.036 kcal/mol and 1.9 ± 0.15 kcal/mol.
The like results for “SAGGSAGGSDGVIQIPIKSDDGEEFKIEIPIEQIKKMMKEGRPIKIWLFDNGKMVRPFEIPIDSAGGSAGGS [r12_991_TrROS]” were, in that order, 0.428 ± 0.12 kcal/mol, 1.06 ± 0.15 kcal/mol and 0.735 ± 0.19 kcal/mol.
In the case of “SAGGSAGGSDPLVSFPLEVELPGGEKVELHFIPGPRLVIARFPDRPVLFYTDGDGVITRVDPISAGGSAGGS [r12_47_TrMRF]”, the “folding stability dG unfold” value in data set [1] was 0.337 ± 0.059 kcal/mol; in data set [2], -0.362 ± 0.11 kcal/mol; in data set [3], 0.0465 ± 0.064 kcal/mol.
As for “SAGGSAGGSDPVPIVITYPDGSTSTTLEPDKIYITYPSKGLKYVVPIDLSTNKISFSLESSLPSAGGSAGGS [r12_539_JUSTAS]”, the “folding stability dG unfold” value in data set [1] was -0.699 ± 0.12 kcal/mol; in data set [2], -0.0759 ± 0.11 kcal/mol; in data set [3] it was -0.254 ± 0.08 kcal/mol.
The like results for “SAGGSAGGSDTVNVKVTVSFPPGTETKEITVNVPVVPGNPDVVKAKVDELAAAFPDAVVTAEKSAGGSAGGS [r12_795_TrMRF]” were, in that order, 0.294 ± 0.078 kcal/mol, 1.99 ± 0.095 kcal/mol and 1.6 ± 0.12 kcal/mol.
For “SAGGSAGGSDYLMIWIPPDALKGMPPGQEIEFEIKFNGGEYKVKIKVMPHENGHYMIMITVEPSAGGSAGGS [r12_433_TrROS]”, the figures for the “folding stability dG unfold” value in data set [1], in data set [2] and in data set [3] were 3.2 ± 0.35 kcal/mol, 4.59 ± 0.3 kcal/mol and 4.06 ± 0.25 kcal/mol, respectively.
